{"source": "paper PMC5871715", "key": {"[1]": {"target": "Netrin-1 (Homo sapiens) (UniProt O95631)", "conditions": "cited from earlier work"}, "[2]": {"target": "Netrin-1 (Homo sapiens) (UniProt O95631)", "conditions": "cited from earlier work", "remark": "listed apart in the source"}, "[3]": {"target": "full-length wild-type rat DCC on the cell surface (UniProt Q63155)", "sequence (Q63155 26-1445)": "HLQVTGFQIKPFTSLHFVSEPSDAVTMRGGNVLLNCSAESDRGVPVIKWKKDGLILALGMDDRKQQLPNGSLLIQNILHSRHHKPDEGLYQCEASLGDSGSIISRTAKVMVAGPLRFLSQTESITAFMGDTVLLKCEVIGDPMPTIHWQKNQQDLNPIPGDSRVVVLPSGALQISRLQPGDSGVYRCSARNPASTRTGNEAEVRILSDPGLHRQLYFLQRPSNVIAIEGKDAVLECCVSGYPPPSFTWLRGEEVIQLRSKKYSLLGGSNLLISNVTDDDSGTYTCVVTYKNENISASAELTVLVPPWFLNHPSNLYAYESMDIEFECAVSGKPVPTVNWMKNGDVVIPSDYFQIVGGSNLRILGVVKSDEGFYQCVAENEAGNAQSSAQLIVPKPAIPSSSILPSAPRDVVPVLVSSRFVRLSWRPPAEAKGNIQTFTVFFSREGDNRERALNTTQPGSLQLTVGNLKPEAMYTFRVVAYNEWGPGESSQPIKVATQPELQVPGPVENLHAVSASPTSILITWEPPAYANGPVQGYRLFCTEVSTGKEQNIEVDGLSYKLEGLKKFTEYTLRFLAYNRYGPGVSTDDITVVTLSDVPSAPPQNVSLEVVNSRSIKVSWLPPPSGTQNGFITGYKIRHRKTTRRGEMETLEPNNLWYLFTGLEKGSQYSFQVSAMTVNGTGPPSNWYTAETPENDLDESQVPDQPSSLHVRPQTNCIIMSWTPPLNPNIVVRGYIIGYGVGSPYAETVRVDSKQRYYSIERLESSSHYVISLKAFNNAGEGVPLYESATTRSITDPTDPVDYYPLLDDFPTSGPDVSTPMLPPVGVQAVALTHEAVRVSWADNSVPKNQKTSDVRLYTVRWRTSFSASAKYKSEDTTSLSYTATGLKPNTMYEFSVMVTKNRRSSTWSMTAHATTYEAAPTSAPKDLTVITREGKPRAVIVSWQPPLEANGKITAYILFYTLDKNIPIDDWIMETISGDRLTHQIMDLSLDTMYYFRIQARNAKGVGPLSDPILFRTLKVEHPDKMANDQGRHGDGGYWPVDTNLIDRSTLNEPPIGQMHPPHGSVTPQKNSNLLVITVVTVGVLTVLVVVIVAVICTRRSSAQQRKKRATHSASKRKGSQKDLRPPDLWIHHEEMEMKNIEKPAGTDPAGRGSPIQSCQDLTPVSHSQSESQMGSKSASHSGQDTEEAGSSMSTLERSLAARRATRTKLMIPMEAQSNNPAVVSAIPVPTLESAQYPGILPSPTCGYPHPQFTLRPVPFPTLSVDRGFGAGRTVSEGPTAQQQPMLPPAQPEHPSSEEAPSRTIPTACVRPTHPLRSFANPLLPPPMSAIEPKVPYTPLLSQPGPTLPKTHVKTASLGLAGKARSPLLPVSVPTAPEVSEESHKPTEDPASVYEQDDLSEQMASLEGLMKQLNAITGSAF", "test": "cell-binding assay", "conditions": "n = 100 for each group; parent: est. 49; read off a plot"}}, "note": "Read-outs that look alike come from different tables or passages of the source."}
{"substance": "DCC Fn5 (from UniProt P43146)", "values": [{"measurement": "Kd", "setting": "[1]", "result": 5000, "unit": "nM"}]}
{"substance": "Draxin (from UniProt Q8NBI3)", "values": [{"measurement": "Kd", "setting": "[2]", "result": 10, "unit": "nM"}]}
{"substance": "wild-type rDraxin-Flag R282A", "values": [{"measurement": "response (% positive binding)", "setting": "[3]", "result": 59}]}
{"substance": "wild-type rDraxin-Flag R282D", "values": [{"measurement": "response (% positive binding)", "setting": "[3]", "result": 6}]}
{"substance": "wild-type rDraxin-Flag R322A", "values": [{"measurement": "response (% positive binding)", "setting": "[3]", "result": 3}]}
{"substance": "wild-type rDraxin-Flag R322D", "values": [{"measurement": "response (% positive binding)", "setting": "[3]", "result": 10}]}
